Results reported in PMC7523994.

How the values were obtained:
[1] = molecular target: total gliadin fraction (Triticum aestivum); assay: turbidimetry; optical density at 540 nm after 30 min of mixing at room temperature; gliadins constant at 1 mg/mL, PINA 0 to 0.1 mg/mL; 20 mM malate pH 5, with or without 0.1 M NaCl; Hill ligand-binding model
[2] = molecular target: total gliadin fraction (Triticum aestivum); assay: turbidimetry; optical density at 540 nm after 30 min of mixing at room temperature; gliadins constant at 1 mg/mL, PINA 0 to 0.1 mg/mL; 20 mM citrate pH 5, with or without 0.1 M NaCl; Hill ligand-binding model
[3] = molecular target: total gliadin fraction (Triticum aestivum); assay: turbidimetry; optical density at 540 nm after 30 min of mixing at room temperature; gliadins constant at 1 mg/mL, PINA 0 to 0.1 mg/mL; 20 mM Tris-HCl pH 7.2, with or without 0.1 M NaCl; Hill ligand-binding model
[4] = molecular target: γ-gliadin (Triticum aestivum) (UniProt P08453); assay: SPR; α-gliadin, γ-gliadin or (PQQPY)8 covalently bound to a CM5 chip (EDC/NHS, 10 mM acetate pH 4.7); PINA flowed over at 10 μL/min, 25°C, 10 mM Hepes pH 7.4, 150 mM NaCl, 3.4 mM EDTA, 0.005% P20; global kinetic fit, 1:1 Langmuir model
γ-gliadin (Triticum aestivum), sequence (P08453 20-327): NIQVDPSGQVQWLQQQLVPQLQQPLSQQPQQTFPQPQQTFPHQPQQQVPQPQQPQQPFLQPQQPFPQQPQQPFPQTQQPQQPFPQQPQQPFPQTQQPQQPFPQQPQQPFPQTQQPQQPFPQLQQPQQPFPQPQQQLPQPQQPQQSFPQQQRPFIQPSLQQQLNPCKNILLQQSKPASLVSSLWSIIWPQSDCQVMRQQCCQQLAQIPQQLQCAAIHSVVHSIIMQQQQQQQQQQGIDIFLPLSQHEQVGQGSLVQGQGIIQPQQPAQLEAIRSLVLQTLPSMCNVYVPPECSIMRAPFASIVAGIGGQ

[5] = molecular target: α-gliadin (Triticum aestivum); assay: as above

B1: puroindoline A (natural protein)
chain: DVAGGGGAQQCPVETKLNSCRNYLLDRCSTMKDFPVTWRWWKWWKGGCQELLGECCSRLGQMPPQCRCNIIQGSIQGDLGGIFGFQRDRASKVIQEAKNLPPRCNQGPPCNIPGTIGYYW
[1]
  Kd: 400 nM
[2]
  Kd: 600 nM
[3]
  Kd: 1000 nM
[4]
  Kd: 630 nM
  koff: 0.00185 s⁻¹
  kon: 3600 M⁻¹ s⁻¹
  response at equilibrium at 2.5 μM PINA: 34 RU
[5]
  Kd: 4450 nM
  koff: 0.00255 s⁻¹
  kon: 450 M⁻¹ s⁻¹
  response at equilibrium at 2.5 μM PINA: 160 RU
